Laboratory results reported in patent publication US6335019B1, “Methods for treating sensitivity to protein allergen using peptides which include a T cell epitope recognized by a T cell receptor specific for the protein allergen” (Immulogic Pharmaceutical Corp., priority 1989, dated 2002).

B1: Amb a II: E. coli expressed recombinant Amb a II (Antigen K) (protein)
chain: LYFTLALVTLVQAGRLGEEVDILPSPNDTRRSLQGCEAHNIIDKCWRCKPDWAENRQALGDCAQGFGKATHGGKWGDIYMVTSDQDDDVVNPKEGTLRFGATQDRPLWIIFQRDMIIYLQQEMVVTSDTTIDGRGAKVELVYGGITLMNVKNVIIHNIDIHDVRVLPGGRIKSNGGPAIPRHQSDGDAIHVTGSSDIWIDHCTLSKSFDGLVDVNWGSTGVTISNCKFTHHEKAVLLGASDTHFQDLKMHVTLAYNIFTNTVHERMPRCRFGFFQIVNNFYDRWDKYAIGGSSNPTILSQGNKFVAPDFIYKKNVCLRTGAQEPEWMTWNWRTQNDVLENGAIFVASGSDPVLTAEQNAGMMQAEPGDMVPQLTMNAGVLTCSPGAPC
B2: chromatographically purified Amb a II: chromatographically purified Amb a II (Antigen K) from ragweed pollen (protein)
chain: GEEVDILPSPNDTRRSLQGCEAHNIIDKCWRCKPDWAENRQALGNCAQGFGKATHGGKWGDIYMVTSDQDDDVVNPKEGTLRFGATQDRPLWIIFQRDMIIYLQQEMVVTSDKTIDGRGAKVELVYGGITLMNVKNVIIHNIDIHDVRVLPGGRIKSNGGPAIPRHQSDGDAIHVTGSSDIWIDHCTLSKSFDGLVDVNWGSTGVTISNCKFTHHEKAVLLGASDTHFQDLKMHVTLAYNIFTNTVHERMPRCRFGFFQIVNNFYDRWDKYAIGGSSNPTILSQGNKFVAPDFIYKKNVCLRTGAQEPEWMTWNWRTQNDVLENGAIFVASGSDPVLTAEQNAGMMQAEPGDMVPQLTMNAGVLTCSPGAPC

Columns and labels:
[1] = tested on: human IgE (ragweed allergic patient sera); assay: SDS-PAGE Western blot (and ELISA) of ragweed allergic patient IgE binding to pollen, affinity purified and recombinant Amb a I / Amb a II; set-up: key to IgE binding, summarized Western blot data: −: no signal over background; +−: barely discernable over background; +: clearly positive; ++: strongly positive; +++: highly positive
Method: As represented in FIG. 1A, a selected monoclonal antibody (designated 4B5/B7) which recognizes an Amb a I preparation unsubjected to denaturing conditions was used to affinity purify from pollen extract a single protein, which is referred to as affinity purified Amb a I. This was carried out, using known techniques, by producing the desired monoclonal antibody, isolating it in large quantities from ascites and immobilizing it on Sepharose (Pharmacia). Aqueous pollen extract was passed over the monoclonal antibody-containing column and a protein species was eluted.
(§1) Furthermore, full-length and truncated cDNAs encoding several members of the Amb a I multigene family, as well as Amb a II, were cloned in-frame into the expression vector pTrc99 (Amann et al. Gene, 69:301-315, (1988)) and transformed into the JM109 host. Expression of recombinant Amb a I and Amb a II protein was induced by 1 mM isopropyl-β-D-thiogalactopyranoside, cells were harvested, lysozyme treated, sonicated and insoluble inclusion bodies recovered by a low speed centrifugation. Recombinant Amb a I and Amb a II protein present in the recovered pellet was solubilized in buffer containing 8M urea, 50 mM Tris HC1 pH8.0, 50 mM NaCl, 1 mM EDTA, 1 mM dithiothreitol, 1 mM phenylmethylsulfonyl fluoride. After solubilization, the crude urea lysate was dialyzed at 4° C. against PBS. […] This antigenic cross-reactivity is consistent with the observed sequence homology of the cDNAs (see FIG. 16).
Comparison of human IgE binding to recombinant Amb a I and Amb a II proteins with anti-peptide and monoclonal anti-Amb a I antibodies have provided data consistent with the conclusion that the N-terminal portion (historically referred to as the β-region) of Amb a IA includes the major IgE eptiope(s).
Affinity purified Amb a I was electrophoresed, Western transferred (Towbin et al., Proc. Natl. Acad. Sci. USA, 76:4350 (1979)) and probed with a variety of antibodies, including IgE from an allergic patient (FIG. 17). In pollen extract Amb a I is not only present as an intact 38-KD species, but also characterized by its component 26KD alpha chains and 12-KD beta chains which are formed by enzymatic cleavage. The intact 38-KD species and the alpha chain are clearly detected using rabbit anti-Amb a I, polyclonal affinity purified anti-RAE 16 and monoclonal anti-Amb a I JBIE3-4 (FIG. 17); RAE 16 peptide has the sequence RTDKDLLENGAIC derived from amino-acids […] of Amb a IB, FIG. 16). Affinity purified Amb a I (partial sequence presented in Table 1) as well as chromatographically purified Amb a II (partial sequence presented in Table 2) are bound on Western blots by these antibodies as well as by patient IgE (FIG. 17). The goat anti-Amb a I polyclonal antibody also binds multiple Amb a I and Amb a II species on a two dimensional Western blot of pollen extract (FIG. 18). The Western blot was performed as outlined below. […]

[2] = tested on: rabbit antisera directed against an Amb a II sequence (amino acid 326-338; RAE 50. K); assay: Western blot of recombinant proteins with monospecific anti-peptide antisera against RAE 50. K; assay type: binding; details: Western blots, data not shown
Excerpt: Proteins or peptides encoded by the cDNA of the present invention can be used, for example, as “purified” allergens. Such purified allergens are useful in the standardization of allergen extracts which are key reagents for the diagnosis and treatment of ragweed allergy. Furthermore, by using peptides based on the sequences listed in FIGS. 2 through 16, anti-peptide antisera or monoclonal antibodies can be made using standard methods. Such reagents can be specifically directed against individual isoforms of Amb a I or Amb a II (i.e., directed against divergent regions/epitopes of the molecule) or can be specific for all forms Amb a I or Amb a II (i.e, directed against common sequences/epitopes). These sera or monoclonal antibodies, directed against Amb a I or Amb a II, can be used to standardize allergen extracts. One such monospecific anti-peptide antisera has already been successfully produced.

[3] = tested on: goat anti-Amb a I antibody; assay: Western blot of E. coli-expressed recombinant Amb a I / Amb a II with goat anti-Amb a I antibody (FIG. 19); assay type: binding
Method: as §1
Isoelectric focusing was done on a Hoeffer gel apparatus with 15 μg of crude soluble pollen protein. The gel consisted of 7.5% acrylamide with 3.5% Pharmalytes pH 4.5-5.3 (Pharmacia) and 3.5% Ampholines pH 3.5-10 (LKB), run at 13W for 3.5 hours until a constant voltage was reached. The gel section was placed on a slab of 10% acrylamide SDS-PAGE and electrophoresed for 3.5 hours at 40 mA according to the protocol cited. The proteins were transferred overnight in phosphate buffer to 0.1 micron nitrocellulose (Schleicher and Schuell) at 0.2A. The blot was rinsed in blot solution (25 mM Tris-CHl pH 7.5, 0.171 M NaCl, 0.05% Tween-20; Sigma). The first antibody incubation was overnight at room temperature with a […] of goat anti-Amb a I IgC (obtained from Dr. David Marsh) in blot solution. The excess first antibody was removed with three 15 minute rinses with blot solution. The second antibody was a 1:2,500 dilution of biotinylated swine anti-goat IgG (Boehringer-Manneheim) in blot solution for two hours. The blot was then rinsed with blot solution three times for 15 minutes and incubated for 1 hr in blot solution with 2 μCi I^125 streptavidin (Amersham). The blots were rinsed with blot solution until the waste wash was down to background. The blot was then exposed to film at —80° C. overnight. In the case of one-dimensional SDS-PAGE Western blots (FIGS. 17, 19 and 20) the isoelectric focusing step was omitted. When human sera was used to probe the Western blots (FIGS. 17 and 20), 10% human plasma in 1% milk in blot solution was incubated overnight with the blot prior to using as second antibody biotinylated goat anti-human IgE.

[4] = tested on: rabbit anti-Amb a I polyclonal antibody; assay: Western blot with rabbit anti-Amb a I polyclonal antibody (FIG. 17); assay type: binding
Excerpt: As is also represented in FIG. 1A, rabbit polyclonal antibodies were produced using the King Antigen E preparation. […] These antibodies were also shown, using a similar technique, to bind to the affinity purified Amb a I described previously (FIG. 17).
It is clear from the antibody reactivity that the 4B5/B7 affinity purified Amb a I has a recognition pattern similar to that of the Amb a I of pollen and skin test reagent with both rabbit polyclonal anti-Amb a I and JB1E3-4 anti-Amb a I monoclonal antibody (FIG. 17).
Affinity purified Amb a I was electrophoresed, Western transferred (Towbin et al., Proc. Natl. Acad. Sci. USA, 76:4350 (1979)) and probed with a variety of antibodies, including IgE from an allergic patient (FIG. 17). In pollen extract Amb a I is not only present as an intact 38-KD species, but also characterized by its component 26KD alpha chains and 12-KD beta chains which are formed by enzymatic cleavage. The intact 38-KD species and the alpha chain are clearly detected using rabbit anti-Amb a I, polyclonal affinity purified anti-RAE 16 and monoclonal anti-Amb a I JBIE3-4 (FIG. 17); RAE 16 peptide has the sequence RTDKDLLENGAIC derived from amino-acids 343-353 of Amb a IB, FIG. 16). […]

Molecule | IgE binding, summarized Western blot data ([1]; patient 151) | IgE binding, summarized Western blot data ([1]; patient 222) | IgE binding, summarized Western blot data ([1]; patient 291) | IgE binding, summarized Western blot data ([1]; patient 295) | IgE binding, summarized Western blot data ([1]; patient 296) | Binding by rabbit anti-RAE 50. K antisera (in words) [2] | Binding by goat anti-Amb a I antibody (in words) [3] | Human IgE binding (in words) ([1]; Western blot (FIG. 17) and/or ELISA, ragweed allergic patient IgE) | Binding by rabbit anti-Amb a I polyclonal antibodies (in words) [4]
B1 | + | + | +− | − | − | binds specifically | binds specifically |  | 
B2 |  |  |  |  |  |  |  | bound | cross-reactive B-cell epitopes
